This passage reports Kd results from PMC4395133 (Molecular Biology of the Cell, 2015).

B1: HIS-tagged recombinant PSPC1 (natural protein, mouse, UniProt Q8R326-1 3-523, looked up)
chain: LRGNLKQVRIEKNPARLRALESAAGESEPVAAAAMALTLAGEQAPPPAPSEEHPDEELGFTIDIKSFLKPGEKTYTQRCRLFVGNLPTDITEEDFKRLFERYGEPSEVFINRDRGFGFIRLESRTLAEIAKAELDGTILKSRPLRIRFATHGAALTVKNLSPVVSNELLEQAFSQFGPVEKAVVVVDDRGRATGKGFVEFAAKPPARKALERCGDGAFLLTTTPRPVIVEPMEQFDDEDGLPEKLMQKTQQYHKEREQPPRFAQPGTFEFEYASRWKALDEMEKQQREQVDRNIREAKEKLEAEMEAARHEHQLMLMRQDLMRRQEELRRLEELRNQELQKRKQIQLRHEEEHRRREEEMIRHREQEELRRQQEGGFKPNYMENREQEMRMGDMGPRGAINMGDAFSPAPAGTQGPPPMMGMNMNNRGTIPGPPMGPGPAMGPEGAANMGTPMIPDNGAVHNDRFPQGPPSQMGSPMGNRTGSETPQAPMSGVGPVSGGPGGFGRGSQGGNFEGPNKRRRY
B2: GST-IMPα4 (natural protein, mouse, UniProt O35343 1-521, looked up)
chain: MADNEKLDNQRLKNFKNKGRDLETMRRQRNEVVVELRKNKRDEHLLKRRNVPQEDICEDSDIDGDYRVQNTSLEAIVQNASSDNQGIQLSAVQAARKLLSSDRNPPIDDLIKSGILPILVHCLERDDNPSLQFEAAWALTNIASGTSEQTQAVVQSNAVPLFLRLLHSPHQNVCEQAVWALGNIIGDGPQCRDYVISLGVVKPLLSFISPSIPITFLRNVTWVMVNLCRHKDPPPPMETIQEILPALCVLIHHTDVNILVDTVWALSYLTDAGNEQIQMVIDSGIVPHLVPLLSHQEVKVQTAALRAVGNIVTGTDEQTQVVLNCDALSHFPALLTHPKEKINKEAVWFLSNITAGNQQQVQAVIDANLVPMIIHLLDKGDFGTQKEAAWAISNLTISGRKDQVAYLIQQNVIPPFCNLLTVKDAQVVQVVLDGLSNILKMAEDQAETIANLIEECGGLEKIEQLQNHENEDIYKLAYEIIDQFFSSDDIDEDPSLVPESVQGGTFGFNSSTNVPTEGFQF

Assay in all cases: ELISA
Assay [1] concerns the target IMPα4/GST-IMPβ1 heterodimer (tag-free IMPα4 predimerized with GST-IMPβ1) (mouse | , UniProt O35343 1-521; P70168 1-876).
Assay [2] has as its target IMPα2/GST-IMPβ1 heterodimer (tag-free IMPα2 predimerized with GST-IMPβ1) (mouse | , UniProt P52293 1-529; P70168 1-876).
The target in assay [3] is IMPα6/GST-IMPβ1 heterodimer (tag-free IMPα6 predimerized with GST-IMPβ1) (mouse | , UniProt O35345 1-536; P70168 1-876).
The target in a further assay is GST-IMPα6 (mouse, UniProt O35345 1-536).
Assay [4] addresses GST-tagged full-length IMPα2 (mouse, UniProt P52293 1-529).
Assay [5] deals with B1.

Sequence of IMPα6/GST-IMPβ1 heterodimer (tag-free IMPα6 predimerized with GST-IMPβ1) (P70168 whole entry, chain 2 of 2): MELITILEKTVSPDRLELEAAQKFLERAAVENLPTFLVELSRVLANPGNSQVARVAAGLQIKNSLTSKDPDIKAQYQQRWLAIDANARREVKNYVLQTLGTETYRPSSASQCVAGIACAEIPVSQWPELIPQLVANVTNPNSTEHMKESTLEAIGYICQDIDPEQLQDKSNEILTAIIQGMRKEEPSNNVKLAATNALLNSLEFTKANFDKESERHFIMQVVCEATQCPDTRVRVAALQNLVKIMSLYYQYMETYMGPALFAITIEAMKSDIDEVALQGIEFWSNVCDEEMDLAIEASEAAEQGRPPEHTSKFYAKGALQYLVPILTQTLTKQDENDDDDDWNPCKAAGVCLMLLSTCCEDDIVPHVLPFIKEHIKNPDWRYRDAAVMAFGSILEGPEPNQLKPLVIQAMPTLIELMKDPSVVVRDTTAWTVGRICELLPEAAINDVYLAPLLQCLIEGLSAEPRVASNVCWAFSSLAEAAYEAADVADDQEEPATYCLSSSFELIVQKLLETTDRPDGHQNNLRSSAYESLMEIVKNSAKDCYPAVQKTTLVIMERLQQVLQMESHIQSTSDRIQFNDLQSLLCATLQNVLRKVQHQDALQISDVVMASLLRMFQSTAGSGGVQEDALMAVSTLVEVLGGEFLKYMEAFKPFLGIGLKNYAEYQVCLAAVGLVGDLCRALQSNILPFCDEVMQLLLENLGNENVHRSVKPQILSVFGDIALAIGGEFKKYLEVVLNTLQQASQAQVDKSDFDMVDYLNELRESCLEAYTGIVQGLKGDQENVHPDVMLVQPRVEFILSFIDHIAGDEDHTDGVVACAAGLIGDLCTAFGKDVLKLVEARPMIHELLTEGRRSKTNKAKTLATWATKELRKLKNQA
Sequence of IMPα4/GST-IMPβ1 heterodimer (tag-free IMPα4 predimerized with GST-IMPβ1) (P70168 whole entry, one chain of several): as the sequence (P70168 whole entry, chain 2 of 2) above
Sequence of IMPα2/GST-IMPβ1 heterodimer (tag-free IMPα2 predimerized with GST-IMPβ1) (P70168 whole entry, one chain of several): as the sequence (P70168 whole entry, chain 2 of 2) above

Turning to B1, the Kd in assay [1] came to 21.3 nM; in assay [2] it was 1.9 nM; in assay [3] it was 2.1 nM; with GST-IMPα6, 5.9 nM; in assay [4] it was 15 nM.
On to B2, for which the dissociation constant Kd in assay [5] stood at 57.9 nM.

Usually Kd stands for the equilibrium constant for the complex coming apart.
